Measurements published in US20160068813A1, “DIFFERENTIATION OF ADIPOSE STROMAL CELLS INTO OSTEOBLASTS AND USES THEREOF” (Artecel Sciences Inc., priority 1997, published 2016).

Tested on: stromal cells isolated from adipose tissue
Experiment: Effect of compounds on osteoblast differentiation of adipose stromal cells, measured by secreted osteocalcin
Type: cell-based, human
Details: differentiated as in Example 2 in presence and absence of compound; secreted osteocalcin assay; data not shown
Description: Adipose stromal cells were isolated as described in Example 1 and then treated as follows to induce differentiation into osteoblasts. Stromal cells were plated in 24-well and/or 6-well tissue culture plates in stromal cell medium (see above) at a density of about 22,000 cells/cm^2. After 24 hours, the stromal cell medium was replaced with osteoblast differentiation medium (DMEM with 10% fetal bovine serum (v/v); 10 mM β-glycerophosphate; 50 μg/ml ascorbate-2-phosphate; 60 U/ml penicillin; 60 U/ml streptomycin; 15 μg/ml amphotericin B). The osteoblast differentiation medium was replaced with fresh medium every 3 days for 3 weeks. When changing the media, one ml of conditioned media was collected and stored at −80° C. for later analysis of secreted factors. […]
Biochemical changes indicative of osteoblast differentiation were also assessed. Osteocalcin is an osteoblast-specific secreted protein that can be measured by ELISA (Intact Human Osteocalcin K EIA kit, catalog number BT-460, Biomedical Technologies, Inc., Stoughton, Mass.). […]
Cultures of stromal cells isolated from adipose tissue according to the method described in Example 1 were used to study the effect compounds of interest on osteoblast differentiation. […] Differentiation was measured by assays for secreted osteocalcin. […]

B1: bone morphogenetic protein 4: bone morphogenetic protein, known osteoblast differentiation promoting agent (protein, UniProt P12644 293-408, looked up)
Bone morphogenetic protein 4: SPKHHSQRARKKNKNCRRHSLYVDFSDVGWNDWIVAPPGYQAFYCHGDCPFPLADHLNSTNHAIVQTLVNSVNSSIPKACCVPTELSAISMLYLDEYDKVVLKNYQEMVVEGCGCR
Q: For B1, which “effect on osteoblast differentiation” value is on record?
A: The value was “positively affect osteoblast differentiation”.
